Experimental data as given in patent US20220016218A1 (YISSUM RESEARCH DEVELOPMENT COMPANY OF THE HEBREW …, published 2022).
*1 amine or outer side, *2 acyl side, *3 side chain or, on linkers, in order; H or OH if unused. Where a SMILES comes first, the peptide text is derived from it. [ ]: non-standard residue; d: D form. Arg(ω,ω'-(C6H13OCO)2) = CCCCCCOC(=O)N=C(NCCC[C@H](N)C(=O)O)NC(=O)OCCCCCC; X1 = CCCCCCOC(=O)N=C(NCCC[C@@H](N[*:1])C(=O)[*:2])NC(=O)OCCCCCC; dNMeR = CN[C@H](CCCNC(=N)N)C(=O)O; NMeD = CN[C@@H](CC(=O)O)C(=O)O; NMeV = CN[C@H](C(=O)O)C(C)C; NMeA = CN[C@@H](C)C(=O)O; dNMeA = CN[C@H](C)C(=O)O

B1: peptide 12, c(*aRGDA*A) (peptide)
peptide: cyclo([dNMeA]RGDA[NMeA])
notes: NMe(1,6) scaffold cyclic hexapeptide; also called the drug

Tests used:
[1] = shake flask in triplicate (rotator; centrifuged); both phases by HPLC-MS/MS; mebendazole reference; conditions: PBS pH 7.4, mutually saturated, not stated C, DMSO stock (small aliquot)
human αvβ3-integrin = target: T1, human αvβ3-integrin (human, UniProt P06756 31-992; P05106 27-718); assay: solid-phase competition assay: soluble human αvβ3 on coated vitronectin
T1 construct: Soluble integrin bought from R&D; also called integrin subtype αvβ3; αvβ3 receptor
T1 sequence (P06756 31-992 limits assumed, chain 1 of 2): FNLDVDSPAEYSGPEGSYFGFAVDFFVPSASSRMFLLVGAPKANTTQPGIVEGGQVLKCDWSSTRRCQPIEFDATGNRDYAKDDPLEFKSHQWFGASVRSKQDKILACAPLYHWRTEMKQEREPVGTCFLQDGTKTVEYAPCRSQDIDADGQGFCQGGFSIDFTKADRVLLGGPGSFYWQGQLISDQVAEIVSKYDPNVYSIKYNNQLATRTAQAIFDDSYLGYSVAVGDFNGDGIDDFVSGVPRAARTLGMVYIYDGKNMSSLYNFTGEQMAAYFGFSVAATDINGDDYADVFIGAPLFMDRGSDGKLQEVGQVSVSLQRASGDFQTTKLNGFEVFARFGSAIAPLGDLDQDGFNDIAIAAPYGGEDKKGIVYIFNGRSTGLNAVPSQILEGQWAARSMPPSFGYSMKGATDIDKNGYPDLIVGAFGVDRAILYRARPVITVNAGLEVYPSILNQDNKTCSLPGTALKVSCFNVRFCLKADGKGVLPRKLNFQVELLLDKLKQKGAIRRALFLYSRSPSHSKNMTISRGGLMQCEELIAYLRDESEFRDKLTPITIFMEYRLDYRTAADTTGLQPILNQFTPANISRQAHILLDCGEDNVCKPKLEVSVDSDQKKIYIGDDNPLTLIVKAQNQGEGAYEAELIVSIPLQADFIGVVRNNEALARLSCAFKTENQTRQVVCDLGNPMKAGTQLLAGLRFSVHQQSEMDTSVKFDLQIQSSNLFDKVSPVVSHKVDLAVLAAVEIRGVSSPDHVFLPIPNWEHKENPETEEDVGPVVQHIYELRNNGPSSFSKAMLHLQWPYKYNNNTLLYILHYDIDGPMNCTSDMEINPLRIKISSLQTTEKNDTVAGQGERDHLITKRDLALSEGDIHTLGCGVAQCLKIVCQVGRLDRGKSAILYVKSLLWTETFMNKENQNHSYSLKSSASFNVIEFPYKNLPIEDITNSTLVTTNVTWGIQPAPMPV
T1 sequence (P05106 27-718 limits assumed, chain 2 of 2): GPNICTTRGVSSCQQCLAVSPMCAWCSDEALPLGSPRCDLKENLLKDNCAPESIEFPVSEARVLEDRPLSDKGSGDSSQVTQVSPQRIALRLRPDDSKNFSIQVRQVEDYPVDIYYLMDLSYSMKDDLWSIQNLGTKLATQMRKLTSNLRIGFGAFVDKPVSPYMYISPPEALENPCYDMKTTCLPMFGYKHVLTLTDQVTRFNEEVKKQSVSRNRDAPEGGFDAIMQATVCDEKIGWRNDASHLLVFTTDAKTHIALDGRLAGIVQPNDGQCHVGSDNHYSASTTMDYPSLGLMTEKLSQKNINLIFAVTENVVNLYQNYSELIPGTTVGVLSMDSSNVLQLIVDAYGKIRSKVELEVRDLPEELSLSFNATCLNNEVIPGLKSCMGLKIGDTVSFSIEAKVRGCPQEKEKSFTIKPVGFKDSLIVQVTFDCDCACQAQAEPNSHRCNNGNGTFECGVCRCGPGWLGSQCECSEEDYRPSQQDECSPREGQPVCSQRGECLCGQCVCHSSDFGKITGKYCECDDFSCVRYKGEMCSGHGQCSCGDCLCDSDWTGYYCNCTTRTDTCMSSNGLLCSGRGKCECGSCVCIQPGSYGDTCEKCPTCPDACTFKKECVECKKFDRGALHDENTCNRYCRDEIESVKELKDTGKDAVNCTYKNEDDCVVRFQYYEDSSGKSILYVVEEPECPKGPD

human αvβ6-Integrin [2] = target: T2, human αvβ6-Integrin (human, UniProt P06756 31-992; P18564 22-707, limits assumed); assay: solid-phase competition assay: soluble human αvβ6 on coated LAP (TGF-β)
T2 construct: Soluble integrin bought from R&D
T2 sequence (P06756 31-992 limits assumed, chain 1 of 2): as the sequence (P06756 31-992 limits assumed, chain 1 of 2) above
T2 sequence (P18564 22-707 limits assumed, chain 2 of 2): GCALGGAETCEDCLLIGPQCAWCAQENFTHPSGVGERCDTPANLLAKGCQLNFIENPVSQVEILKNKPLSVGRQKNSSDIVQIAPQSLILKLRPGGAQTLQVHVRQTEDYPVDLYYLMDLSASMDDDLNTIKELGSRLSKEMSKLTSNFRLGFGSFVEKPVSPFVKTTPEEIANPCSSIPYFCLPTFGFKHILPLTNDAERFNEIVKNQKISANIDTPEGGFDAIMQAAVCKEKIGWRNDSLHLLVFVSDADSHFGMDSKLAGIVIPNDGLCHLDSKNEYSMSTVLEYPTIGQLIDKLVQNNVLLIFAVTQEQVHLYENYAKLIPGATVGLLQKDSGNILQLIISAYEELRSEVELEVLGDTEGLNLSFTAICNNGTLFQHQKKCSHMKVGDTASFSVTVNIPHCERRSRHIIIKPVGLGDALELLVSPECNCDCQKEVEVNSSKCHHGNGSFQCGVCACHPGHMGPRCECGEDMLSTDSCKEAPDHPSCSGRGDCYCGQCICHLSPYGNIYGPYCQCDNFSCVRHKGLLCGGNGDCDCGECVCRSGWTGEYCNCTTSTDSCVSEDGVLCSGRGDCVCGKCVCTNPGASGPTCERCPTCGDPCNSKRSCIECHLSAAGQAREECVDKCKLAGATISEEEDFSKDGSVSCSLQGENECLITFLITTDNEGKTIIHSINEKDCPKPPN

human αvβ6-Integrin [3] = target: T2, human αvβ6-Integrin; assay: solid-phase competition assay; value given for the internal standard
human αvβ8-Integrin = target: T3, human αvβ8-Integrin (human, UniProt P06756 31-992; P26012 43-684); assay: as above
T3 construct: Soluble integrin bought from R&D
T3 sequence (P06756 31-992 limits assumed, chain 1 of 2): as the sequence (P06756 31-992 limits assumed, chain 1 of 2) above
T3 sequence (P26012 43-684 limits assumed, chain 2 of 2): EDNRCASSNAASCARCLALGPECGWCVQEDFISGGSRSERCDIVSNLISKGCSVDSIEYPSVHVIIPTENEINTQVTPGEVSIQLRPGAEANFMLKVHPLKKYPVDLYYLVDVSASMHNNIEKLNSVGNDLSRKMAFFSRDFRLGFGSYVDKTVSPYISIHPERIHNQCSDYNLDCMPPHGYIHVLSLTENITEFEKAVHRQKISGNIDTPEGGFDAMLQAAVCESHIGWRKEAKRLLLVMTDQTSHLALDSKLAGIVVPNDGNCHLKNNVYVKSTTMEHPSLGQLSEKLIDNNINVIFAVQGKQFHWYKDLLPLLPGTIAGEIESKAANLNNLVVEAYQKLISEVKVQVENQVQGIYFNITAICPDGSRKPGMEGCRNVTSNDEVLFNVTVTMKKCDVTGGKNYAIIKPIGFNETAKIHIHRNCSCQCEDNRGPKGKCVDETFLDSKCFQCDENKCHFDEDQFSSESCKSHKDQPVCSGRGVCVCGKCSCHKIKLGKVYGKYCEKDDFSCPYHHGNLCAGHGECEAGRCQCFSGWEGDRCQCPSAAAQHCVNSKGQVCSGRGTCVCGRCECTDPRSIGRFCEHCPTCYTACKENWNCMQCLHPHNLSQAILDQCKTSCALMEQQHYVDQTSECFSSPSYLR

human αvβ5-integrin = target: T4, human αvβ5-integrin (human, UniProt P06756 31-992; P18084 24-719, limits assumed); assay: solid-phase competition assay: soluble human αvβ5 on coated vitronectin
T4 construct: Soluble integrin bought from Millipore
T4 sequence (P06756 31-992 limits assumed, chain 1 of 2): as the sequence (P06756 31-992 limits assumed, chain 1 of 2) above
T4 sequence (P18084 24-719 limits assumed, chain 2 of 2): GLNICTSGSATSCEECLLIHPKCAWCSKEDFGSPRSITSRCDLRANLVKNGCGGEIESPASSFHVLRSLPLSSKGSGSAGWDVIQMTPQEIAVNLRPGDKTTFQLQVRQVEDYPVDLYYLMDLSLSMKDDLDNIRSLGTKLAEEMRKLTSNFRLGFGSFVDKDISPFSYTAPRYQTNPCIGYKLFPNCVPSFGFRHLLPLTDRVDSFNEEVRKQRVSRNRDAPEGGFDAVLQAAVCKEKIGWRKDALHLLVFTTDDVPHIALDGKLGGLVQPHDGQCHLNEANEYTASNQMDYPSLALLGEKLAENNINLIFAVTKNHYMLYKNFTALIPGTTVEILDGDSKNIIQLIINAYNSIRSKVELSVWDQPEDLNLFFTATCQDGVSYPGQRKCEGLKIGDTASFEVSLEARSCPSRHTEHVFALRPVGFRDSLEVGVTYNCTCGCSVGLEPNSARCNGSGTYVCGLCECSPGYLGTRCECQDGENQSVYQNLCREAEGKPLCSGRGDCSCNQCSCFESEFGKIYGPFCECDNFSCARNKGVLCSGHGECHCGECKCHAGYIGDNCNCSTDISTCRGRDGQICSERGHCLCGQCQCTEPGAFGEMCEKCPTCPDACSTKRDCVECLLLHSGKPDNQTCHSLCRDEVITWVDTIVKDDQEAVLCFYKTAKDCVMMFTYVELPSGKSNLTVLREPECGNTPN

Row | Molecule | log D (1-octanol / PBS pH 7.4) [1] [log units] | IC50 (human αvβ3-integrin) [nM] | other results
1 | CCCCCCOC(=O)N=C(NCCC[C@@H]1NC(=O)[C@H](Cc2ccccc2)NC(=O)[C@@H]2CCCN2C(=O)[C@@H]2CCCN2C(=O)[C@H](CC(C)C)NC(=O)[C@H](C)NC(=O)[C@H](CC(C)C)NC(=O)[C@H](CC(=O)O)NC(=O)CNC1=O)NC(=O)OCCCCCC (cyclo(ALPPF[Arg(ω,ω'-(C6H13OCO)2)]GDL)) | >4.5 | – | –
2 | CCCCCCOC(=O)NC(=N)NCCC[C@@H]1NC(=O)[C@@H](C(C)C)N(C)C(=O)[C@H](C)N(C)C(=O)[C@H](C)NC(=O)[C@H](CC(=O)OC)NC(=O)CNC1=O | 1.85 | – | –
3 | CCCCCCOC(=O)N=C(NCCC[C@@H]1NC(=O)[C@H](CC(C)C)NC(=O)CNC(=O)[C@@H]2CCCN2C(=O)[C@@H]2CCCN2C(=O)[C@H](CC(C)C)NC(=O)[C@H](CC(=O)O)NC(=O)CNC1=O)NC(=O)OCCCCCC (cyclo(LPPGL[Arg(ω,ω'-(C6H13OCO)2)]GD)) | >4.5 | – | –
4 | CCCCCCOC(=O)N=C(NCCC[C@@H]1NC(=O)[C@@H](C(C)C)N(C)C(=O)[C@H](C)N(C)C(=O)[C@H](C)NC(=O)[C@H](CC(=O)OC)NC(=O)CNC1=O)NC(=O)OCCCCCC | 4.86 | – | –
5 | CC(C)C[C@@H]1NC(=O)[C@H](CC(=O)O)NC(=O)CNC(=O)[C@H](CCCNC(=N)N)NC(=O)[C@H](Cc2ccccc2)NC(=O)[C@@H]2CCCN2C(=O)[C@@H]2CCCN2C(=O)[C@H](CC(C)C)NC(=O)[C@H](C)NC1=O (cyclo(RGDLALPPF)) | −0.19 | – | –
6 | CCCCCCOC(=O)N=C(NCCC[C@@H]1NC(=O)[C@H](C(C)C)N(C)C(=O)[C@@H](Cc2ccccc2)NC(=O)[C@H](CC(=O)O)NC(=O)CNC1=O)NC(=O)OCCCCCC | 3.95 | – | –
7 | CC(C)[C@H]1C(=O)N[C@@H](CCCNC(=N)N)C(=O)NCC(=O)N[C@@H](CC(=O)O)C(=O)N[C@H](Cc2ccccc2)C(=O)N1C | <−1 | – | –
8 | CCCCCCOC(=O)N=C(NCCC[C@H]1NC(=O)[C@H](C(C)C)N(C)C(=O)[C@@H](C)N(C)C(=O)[C@@H](C)NC(=O)[C@@H](CC(=O)OC)NC(=O)CNC1=O)NC(=O)OCCCCCC (cyclo(G[dD](OMe)[dA][dNMeA][NMeV][X1])) | >4.5 | – | –
9 | CC(C)C[C@@H]1NC(=O)CNC(=O)[C@@H]2CCCN2C(=O)[C@@H]2CCCN2C(=O)[C@H](CC(C)C)NC(=O)[C@H](CC(=O)O)NC(=O)CNC(=O)[C@H](CCCNC(=N)N)NC1=O (cyclo(RGDLPPGL)) | <−1 | – | –
10 | CC(C)[C@@H]1C(=O)N[C@@H](CCCNC(=N)N)C(=O)NCC(=O)N[C@@H](CC(=O)O)C(=O)N[C@@H](C)C(=O)N(C)[C@@H](C)C(=O)N1C | <−1 | – | –
11 | COC(=O)Nc1nc2cc(C(=O)c3ccccc3)ccc2[nH]1 | 3.04 | – | –
12 | cyclo([dR]GDA[NMeA][NMeA]) (NMe(5,6) scaffold cyclic hexapeptide) [peptide 23, c(rGDA*A*A)] | – | 73 | IC50 (human αvβ6-Integrin [2]): 130 nM
13 | RTDLDSLRT (Internal standard for αvβ6 and αvβ8) [linear peptide RTDLDSLRT] | – | – | IC50 (human αvβ6-Integrin [3]): 6 to 33 nM; IC50 (human αvβ8-Integrin): 8 to 100 nM
14 | cyclo([dR]G[NMeD]A[NMeA]A) (NMe(3,5) scaffold cyclic hexapeptide) [peptide 17, c(rG*DA*AA)] | – | 2350 | –
15 | B1 | – | 4.8 | IC50 (human αvβ5-integrin): 1500 nM; IC50 (human αvβ6-Integrin [2]): 770 nM
16 | cyclo([dNMeR]GDA[NMeA]A) (NMe(1,5) scaffold cyclic hexapeptide) [peptide 5, c(*rGDA*AA)] | – | 13 | IC50 (human αvβ5-integrin): 170 nM; IC50 (human αvβ6-Integrin [2]): 25 nM
17 | cyclo([dNMeR]GDA[NMeA]F) (NMe(1,5) scaffold cyclic hexapeptide) [peptide 33, c(*rGDA*AF)] | – | 4.4 | IC50 (human αvβ6-Integrin [2]): 25 nM
18 | cyclo([dNMeR]GDA[NMeA]V) (NMe(1,5) scaffold cyclic hexapeptide) [peptide 32, c(*rGDA*AV)] | – | 5.6 | IC50 (human αvβ6-Integrin [2]): 3.8 nM
